# Assay: soluble fraction after stress (log2 fold change); higher = more stays soluble; pooled small domains, quantitative proteomics
# Conditions: stress: pH 4
# Procedure, shortened: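 Custom libraries of small protein domains were pooled and measured with high-throughput quantitative proteomics after pH 4 stress. The read-out is the fold change in the amount of each domain that stays soluble after the acid stress, taken as a measure of aggregation propensity. Fold changes are on a log2 scale, and higher values mean more of the domain stayed soluble.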
row,Sequence,soluble fraction (log2)
1,HMTQEFIVPKVTGYTVEDAMNLSGVKDVFEITVDSTEKSDQPAGIILFQDPKDGSSRKSDLVIHVVVSAGS,0.0901
2,HMVMLIVMNHTASQADIDKVIEVVSGMGFTAAPIPGGERTAIGVLGNKGYVDDSTIRDLPGVQQAIHVSKP,-0.301
3,HMTVSADQTAADAVIKLINAIGTVSENSGSAISAARSGYDALTDTQKKLVTNYNKLTQAEQVFSSLPS,-0.315
4,HMSDVLPEAILERRLVKKGNRAVPQVLIKWTKLPATSATWEDFYVLQQRFPTALAWGQAPSPGGQM,-0.213
5,HMGLLGIYPNPVEGGSVRLLSDADLFGSRFELYDQSGKLVLNGFVTEGNFVSVKGISSGLYISVSYT,0.00514
6,HMQSLPFSFAKRHGVLLKSINHLHGEAVYRIGANPLSLSEVQRYAGVPLKLSSITVEKFDRLLQETYEHD,-0.436
7,HMEDPFATLGVHREASLDEIKRAYRRLAMFWHPDRNPEAVAGTEFKRVHAAYELLLDPQRLAEWQQAQAT,-0.424
8,HMERQAEAWTNRASALISLGRDEEALEAADRAIELDPRLSKAWIDRSTALSNLGRNDEANEAIQMAMFL,-0.962
9,HMKREETLKALATKNANYVARSGRRYSFEPMNPYERRIIHTAVQEIEGVTSRSIGSGMDRRVLIEPEGGV,-0.234
10,HMSEITMMQMEIPEGHNWENRLVKDVSMPTGSLAVMIKRHGETLIPGGDTRILAGDTIVLSVPAYESG,-1.03
11,HMNRTEYMAALRRALSVLPEEERASALRYYEEYFDDAGPENEEKVIADLGAPEKVAGQILADYRE,-0.462
12,HMGRAAEETETFRTQGELDARIKELQGQMRDAAANLEFERAAGLRDTLKRLRTRGLGLSASP,-0.0313
13,HMGHKTLTVELQEKIENLPQTLDKYNLTLGNNKMSVDYTYSVKEKQTGITNLLQDLKEHKFDIVYLVGQDN,-0.613
14,HMSKSIGEALKEERRSLGLTQEQFIKGIISESFYSKVERGKNEIVAVDLLKILAANNISEEEFLSKLN,-0.168
15,HMKIPPIMFVRAIMVAGRQSMAIMDIEGVGTGIIVRSGYSFSNGEGKVVRIGPDKVTVNWSGKHLDLAPG,-0.121
16,HMDINNTNFSRDVDNLLQNEEFIKWRIFRTKEWEDYWENFRKENPHMEDALQEAISRFNAVK,-0.736
17,HMPYPSPADLARMDELIAWVKDEGRLPRDRSGQRSERSMARWLAARRREAAEGTLDPAYRDGLAQVPGWR,-0.304
18,HMARTTIATPWDKINDLLQGGLGNGDFGLIFGNPGGGKSWSLVALGGFAVKLGYNVIHYTLE,-1.35
19,HMLSAGTTEQRLAMLQYQWEKQSETYSALGPNNGVVTLGQIRNTMAKIAELAGFKDAAQFWMPVPMDYDV,-0.491
20,HMQEQIVQGIVKYFDAEKQFGFIAGDDGVDRFFNAKSIQGNAVKTGDRVRFLAISHIRGPRALKISA,-0.566
21,HMADTIEVVVQVNGKVRAKISTSPEVFADSTKLQELALADANVQKFIAGQTIRKVIIPKGTKLLNIV,-0.55
22,HMRVEEVGYGEFLQMAEERDLAEVQVTDTEIIFSDKDTPPNYYKTGRMDDPFLVDRLYSAGIRDFGE,-1.65
23,HMDRDPAEAGYDDGYLSGNTDGMNNDERATYDESSQYPTPDERQSYAAAYRRGYAAGFADGRKQAV,-0.138
24,HMINEDMTQSDRMELWGRLIDVVEDWLAEKGITEEDIPNEEREGVEDAAIIFGDDYDYLADRFSEVIGISR,-1.99
25,HMKALRNQDVVVGKPLAMAVYDQHGVLLLGRGHVVISESQRQQLLERGFSIDAEQLGRLRAAIEATQRV,0.0921
26,HMSSAMDMISRDVRNADSISISTTTYSKKIDLYNFDRNGDIEELHSYSAKNDLGILYNDEPI,0.191
27,HMRLIDVFELSPKNRTVLQLYYYEGYSVTEISKILKISVNGVTSRLSRARSKLKLEMEAAENE,-0.0525
28,HMNYTYTVPEGIRYLRADKALALAFPDHSRTALQRAFDSGLVTLRGVAIKRDQSVTALDTLEFAMPDI,-0.675
29,HMSYPTAVTQTTLNVRTGPGTQYERLGAFVENTEVIVLTRQPEWIQVRGMSGDKAIIGWVSARYLQMNP,0.18
30,HMPEAITLRDLKTYSKQAASGYLDDHQLVLVEKEAHSEDVPEGQVIKQKPGAGASVKPGDKVEVTFSLGPE,0.22

# Reference: the domain aggregation screens of Martell et al. (2025)
